This test has as its target human sortilin (R&D Systems, 3154-ST) (human, UniProt Q99523 78-755). The experiment in a line: SPR. Background: Surface plasmon resonance follows binding to a sensor surface in real time, without labels.

Sequence of human sortilin (R&D Systems, 3154-ST) (Q99523 78-755): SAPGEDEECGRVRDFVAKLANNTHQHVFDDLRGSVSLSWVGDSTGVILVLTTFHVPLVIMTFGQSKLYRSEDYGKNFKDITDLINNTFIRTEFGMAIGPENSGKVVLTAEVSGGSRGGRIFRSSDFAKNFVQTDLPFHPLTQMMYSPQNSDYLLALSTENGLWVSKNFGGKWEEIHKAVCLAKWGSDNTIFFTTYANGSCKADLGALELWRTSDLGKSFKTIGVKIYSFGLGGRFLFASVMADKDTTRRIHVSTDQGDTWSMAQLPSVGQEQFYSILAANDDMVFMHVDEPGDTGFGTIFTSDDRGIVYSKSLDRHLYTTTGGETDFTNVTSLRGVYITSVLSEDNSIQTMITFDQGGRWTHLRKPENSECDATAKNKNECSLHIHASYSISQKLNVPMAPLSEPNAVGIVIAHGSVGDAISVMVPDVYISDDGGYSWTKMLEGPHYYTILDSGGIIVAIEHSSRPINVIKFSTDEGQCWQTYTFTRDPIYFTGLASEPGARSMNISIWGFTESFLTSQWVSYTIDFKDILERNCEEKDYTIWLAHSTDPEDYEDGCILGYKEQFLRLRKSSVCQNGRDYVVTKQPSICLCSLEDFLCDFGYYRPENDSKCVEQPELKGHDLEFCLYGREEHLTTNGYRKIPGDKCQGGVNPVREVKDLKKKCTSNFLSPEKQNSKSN

LRREAPRWDAPLRDPGLRQLL [ABD-PGRNC21* (His6-ABD035-PGRNC21*)] displayed a Kd of 26 nM.

What is called Kd is the concentration at which binding is half-saturated.

The values are drawn from article PMC11342335 (2024).
